Assay results as given in patent US20250043302A1, “MUTATED HYDROXYPHENYLPYRUVATE DIOXYGENASE POLYPEPTIDE, AND CODING GENE AND USE THEREOF” (BEIJING DABEINONG BIOTECHNOLOGY CO., LTD., priority 2021, published 2025).

B1: PfHPPD-02: nucleotide sequence encoding wild-type Pseudomonas fluorescens HPPD; vector DBN11770 (nucleic acid)
DNA: ATGGCCGATTTGTACGAGAACCCAATGGGACTCATGGGTTTCGAGTTCATTGAGTTCGCTTCCCCCACCCCAGGTACTTTGGAGCCTATTTTCGAGATCATGGGCTTCACTAAGGTTGCCACACACAGGTCTAAGAATGTGCATCTCTACCGCCAAGGAGAGATTAACCTGATCCTTAACAATGAGCCTAATAGCATCGCCTCATACTTCGCTGCTGAGCATGGTCCATCTGTTTGCGGCATGGCTTTCAGAGTGAAGGATTCACAAAAGGCCTACAACAGGGCTTTGGAGCTCGGCGCCCAGCCCATTCATATCGACACCGGACCTATGGAGCTGAATCTTCCTGCCATTAAGGGCATCGGCGGAGCTCCATTGTACCTCATTGATCGCTTCGGCGAGGGCTCCTCTATCTACGATATCGACTTCGTGTACCTGGAGGGCGTTGAGAGAAACCCTGTGGGAGCTGGTCTGAAGGTTATCGACCACCTTACTCATAATGTTTACAGAGGAAGGATGGTGTACTGGGCCAACTTCTACGAGAAGCTGTTCAATTTCCGCGAGGCTAGATACTTCGATATTAAGGGCGAGTACACAGGACTTACCTCCAAGGCCATGTCTGCTCCCGACGGTATGATTAGGATCCCATTGAACGAGGAGAGCTCAAAGGGCGCCGGACAGATTGAGGAGTTCCTCATGCAATTCAATGGTGAAGGCATCCAGCACGTTGCTTTCCTGACAGATGACCTTGTGAAGACCTGGGATGCCCTCAAGAAGATTGGCATGAGGTTCATGACCGCTCCACCTGACACTTACTACGAGATGTTGGAGGGACGCCTCCCTGATCATGGCGAGCCCGTTGACCAGCTGCAAGCTAGAGGAATCCTCCTGGATGGTTCCTCTGTGGAGGGCGACAAGAGGCTTTTGCTCCAAATTTTCAGCGAGACTCTTATGGGACCCGTGTTCTTCGAGTTCATCCAGAGGAAGGGCGATGACGGATTCGGCGAGGGCAACTTCAAGGCCCTGTTCGAGTCTATTGAGAGAGATCAGGTGAGGCGCGGCGTTCTTACAGCTGACTGA
modifications: PfHPPD-02 Nucleotide Sequence
notes: vector DBN11770
B2: PfHPPDm-F372A-F383W-02: nucleotide sequence encoding Pseudomonas fluorescens HPPD with F372A+F383W; vector DBN11773 (nucleic acid)
DNA: ATGGCCGATTTGTACGAGAACCCAATGGGACTCATGGGTTTCGAGTTCATTGAGTTCGCTTCCCCCACCCCAGGTACTTTGGAGCCTATTTTCGAGATCATGGGCTTCACTAAGGTTGCCACACACAGGTCTAAGAATGTGCATCTCTACCGCCAAGGAGAGATTAACCTGATCCTTAACAATGAGCCTAATAGCATCGCCTCATACTTCGCTGCTGAGCATGGTCCATCTGTTTGCGGCATGGCTTTCAGAGTGAAGGATTCACAAAAGGCCTACAACAGGGCTTTGGAGCTCGGCGCCCAGCCCATTCATATCGACACCGGACCTATGGAGCTGAATCTTCCTGCCATTAAGGGCATCGGCGGAGCTCCATTGTACCTCATTGATCGCTTCGGCGAGGGCTCCTCTATCTACGATATCGACTTCGTGTACCTGGAGGGCGTTGAGAGAAACCCTGTGGGAGCTGGTCTGAAGGTTATCGACCACCTTACTCATAATGTTTACAGAGGAAGGATGGTGTACTGGGCCAACTTCTACGAGAAGCTGTTCAATTTCCGCGAGGCTAGATACTTCGATATTAAGGGCGAGTACACAGGACTTACCTCCAAGGCCATGTCTGCTCCCGACGGTATGATTAGGATCCCATTGAACGAGGAGAGCTCAAAGGGCGCCGGACAGATTGAGGAGTTCCTCATGCAATTCAATGGTGAAGGCATCCAGCACGTTGCTTTCCTGACAGATGACCTTGTGAAGACCTGGGATGCCCTCAAGAAGATTGGCATGAGGTTCATGACCGCTCCACCTGACACTTACTACGAGATGTTGGAGGGACGCCTCCCTGATCATGGCGAGCCCGTTGACCAGCTGCAAGCTAGAGGAATCCTCCTGGATGGTTCCTCTGTGGAGGGCGACAAGAGGCTTTTGCTCCAAATTGCTAGCGAGACTCTTATGGGACCCGTGTGGTTCGAGTTCATCCAGAGGAAGGGCGATGACGGATTCGGCGAGGGCAACTTCAAGGCCCTGTTCGAGTCTATTGAGAGAGATCAGGTGAGGCGCGGCGTTCTTACAGCTGACTGA
modifications: PfHPPDm-F372A-F383W-02 Nucleotide Sequence
notes: vector DBN11773

Tested on: Arabidopsis thaliana T1 plants
Experiment: Mesotrione tolerance of transgenic Arabidopsis thaliana T1 plants (spray, bleached leaf area grade, damage score)
Assay type: in vivo
Set-up: Scores: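 damage score 0-100 computed as Σ(N×S)/(T×M)×100 over grades 0-3 with higher meaning more damage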
Conditions: Arabidopsis thaliana T1 plants; for Grade 0 (classification and statistics of the grade of pesticide damage; number of plants) / Grade 1 (classification and statistics of the grade of pesticide damage; number of plants) / Grade 2 (classification and statistics of the grade of pesticide damage; number of plants) / Grade 3 (classification and statistics of the grade of pesticide damage; number of plants): 16 plants
Description: T1 transformants were initially selected from the untransformed seeds using a glufosinate selection scheme. The Arabidopsis thaliana T1 plants (AsHPPD-02) into which the AsHPPD-02 nucleotide sequence was introduced, the Arabidopsis thaliana T1 plants (AsHPPDm-F372A-02) into which the AsHPPDm-F372A-02 nucleotide sequence was introduced, the Arabidopsis thaliana T1 plants (AsHPPDm-F383W-02) into which the AsHPPDm-F383W-02 nucleotide sequence was introduced, the Arabidopsis thaliana T1 plants (AsHPPDm-F372A-F383W-02) into which the AsHPPDm-F372A-F383W-02 nucleotide sequence was introduced, the Arabidopsis thaliana T1 plants (DBN11726N) into which the control recombinant expression vector DBN11726N was introduced, and the wild-type Arabidopsis thaliana plants (CK) (18 days after sowing) were sprayed respectively with topramezone at three concentrations (100 g ai/ha (four-fold field concentration, 4×), 200 g ai/ha (eight-fold field concentration, 8×), and 0 g ai/ha (water, 0×)), isoxaflutole at three concentrations (140 g ai/ha (two-fold field concentration, 2×), 280 g ai/ha (four-fold field concentration, 4×), and 0 g ai/ha (water, 0×)), and mesotrione at three concentrations (210 g ai/ha (two-fold field concentration, […]), 420 g ai/ha (four-fold field concentration, 4×), and 0 g ai/ha (water, 0×)), to determine the tolerance of Arabidopsis thaliana to the herbicides. The degree of damage caused by the herbicide was measured for each plant according to the proportion of bleached leaf area (the proportion of bleached leaf area=bleached leaf area/total leaf area×100%) 7 days after spraying (7 DAT): the case where there is basically no bleached phenotype is defined as grade 0, the case where the proportion of bleached leaf area is less than 50% is defined as grade 1, the case where the proportion of bleached leaf area is more than 50% is defined as grade 2, and the case where the proportion of bleached leaf area is 100% grade is defined as grade 3.
According to the method as described above in point 6 of Example 1, the aforementioned Arabidopsis thaliana T1 plants and wild-type Arabidopsis thaliana plants (CK) (18 days after sowing) were sprayed respectively with topramezone at three concentrations (25 g ai/ha (one-fold field concentration, 1×). 100 g ai/ha (four-fold field concentration, 4×), and 0 g ai/ha (water, 0×)), isoxaflutole at three concentrations (35 g ai/ha (half-fold field concentration, 0.5×). 70 g ai/ha (one-fold field concentration, 1×), and 0 g ai/ha (water, 0×)), and mesotrione at three concentrations (52.5 g ai/ha (half-fold field concentration, 0.5×), 105 g ai/ha (one-fold field concentration, 1×), and 0 g ai/ha (water, 0×)) to detect the tolerance of Arabidopsis thaliana to the herbicides.
According to the method as described above in point 6 of Example 1, the aforementioned Arabidopsis thaliana T1 plants and wild-type Arabidopsis thaliana plants (CK) (18 days after sowing) were sprayed with topramezone at three different concentrations (i.e., 100 g ai/ha (four-fold field concentration, 4×), 200 g ai/ha (eight-fold field concentration, 8×) and 0 g ai/ha (water, 0×)), isoxaflutole at three different concentrations (i.e., 140 g ai/ha (two-fold field concentration, 2×), 280 g ai/ha (four-fold field concentration, 4×) and 0 g ai/ha (water, 0×)), and mesotrione at three different concentrations (i.e., 210 g ai/ha (two-fold field concentration, 2×), 420 g ai/ha (four-fold field concentration, 4×) and 0 g ai/ha (water, 0×)) respectively to detect the herbicide tolerance of Arabidopsis thaliana. […]

Molecule	Resistance evaluation (mesotrione 52.5 g ai/ha)	Scores (mesotrione 52.5 g ai/ha)	Grade 0 (classification and statistics of the grade of pesticide damage; number of plants) (mesotrione 52.5 g ai/ha)	Grade 1 (classification and statistics of the grade of pesticide damage; number of plants) (mesotrione 52.5 g ai/ha)	Grade 2 (classification and statistics of the grade of pesticide damage; number of plants) (mesotrione 52.5 g ai/ha)	Grade 3 (classification and statistics of the grade of pesticide damage; number of plants) (mesotrione 52.5 g ai/ha)	Resistance evaluation (mesotrione 105 g ai/ha)	Scores (mesotrione 105 g ai/ha)	Grade 0 (classification and statistics of the grade of pesticide damage; number of plants) (mesotrione 105 g ai/ha)	Grade 1 (classification and statistics of the grade of pesticide damage; number of plants) (mesotrione 105 g ai/ha)	Grade 2 (classification and statistics of the grade of pesticide damage; number of plants) (mesotrione 105 g ai/ha)	Grade 3 (classification and statistics of the grade of pesticide damage; number of plants) (mesotrione 105 g ai/ha)
B1	Non-resistant	100	0	0	0	16	Non-resistant	100	0	0	0	16
B2	Moderately	21	7	8	1	0	Moderately	33	5	6	5	0
